The target of assay [1] is T1, human MerTK (human, UniProt Q12866 21-999).
T1 construct: endogenous receptor on cells; also called human MerTK endogenously expressed on SK-MEL-5 cells; MerTK on human macrophages
T1 sequence: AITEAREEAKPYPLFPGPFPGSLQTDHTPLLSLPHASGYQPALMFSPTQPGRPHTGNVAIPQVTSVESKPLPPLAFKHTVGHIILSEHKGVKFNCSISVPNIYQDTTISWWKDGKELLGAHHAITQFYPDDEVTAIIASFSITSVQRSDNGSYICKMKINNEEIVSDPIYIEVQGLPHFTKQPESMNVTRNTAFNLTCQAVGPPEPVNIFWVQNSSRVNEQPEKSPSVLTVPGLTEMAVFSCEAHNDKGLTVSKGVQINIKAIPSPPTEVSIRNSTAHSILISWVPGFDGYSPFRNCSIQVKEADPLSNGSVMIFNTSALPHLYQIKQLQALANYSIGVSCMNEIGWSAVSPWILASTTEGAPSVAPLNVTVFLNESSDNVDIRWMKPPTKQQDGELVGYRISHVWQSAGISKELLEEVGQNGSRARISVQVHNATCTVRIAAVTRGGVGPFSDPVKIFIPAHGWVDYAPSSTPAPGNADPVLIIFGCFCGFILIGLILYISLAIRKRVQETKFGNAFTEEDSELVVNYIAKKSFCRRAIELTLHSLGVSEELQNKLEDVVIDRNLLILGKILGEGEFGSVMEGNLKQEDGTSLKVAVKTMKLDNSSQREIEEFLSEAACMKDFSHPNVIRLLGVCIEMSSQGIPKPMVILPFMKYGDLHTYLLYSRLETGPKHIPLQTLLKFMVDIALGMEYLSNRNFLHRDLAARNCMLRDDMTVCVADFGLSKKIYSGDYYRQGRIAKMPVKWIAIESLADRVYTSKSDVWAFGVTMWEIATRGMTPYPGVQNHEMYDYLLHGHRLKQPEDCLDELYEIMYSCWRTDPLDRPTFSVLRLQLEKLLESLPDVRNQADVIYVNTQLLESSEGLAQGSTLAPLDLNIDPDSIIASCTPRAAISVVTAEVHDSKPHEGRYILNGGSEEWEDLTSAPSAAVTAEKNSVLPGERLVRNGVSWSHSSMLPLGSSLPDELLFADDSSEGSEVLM
In words: FACS, SK-MEL-5 cells, 10 ug/ml. As to the method: To determine whether recombinant anti-human MerTK antibodies of the present disclosure bind to human MerTK endogenously expressed on SK-MEL-5 cells and CHO cells overexpressing mouse MerTK (CHO-muMerTK OE cells), as compared to A375 and parental CHO cells as negative controls, the following experiments were performed. SK-MEL-5 cells, A375 cells, CHO-muMerTK OE cells, and CHO parental cells were plated at 100,000 cells/well. Anti-MerTK antibodies were added to the cells at 10 μg/ml. After 60 minutes on ice, cells were washed and then stained with PE-conjugated goat anti-human IgG antibody (Southern Biotech Cat #2040-09, Birmingham, AL) in the presence of Fc block solution on ice for 30 minutes, and then washed twice with cold FACS buffer (2% FBS in PBS). Mouse anti-human MerTK-PE conjugated (Biolegend, Clone 590H11G1E3) or anti-mouse MerTK-PE conjugated (ThermoFisher, Clone DS5MMER) antibodies were used as positive controls. Stained cells were acquired on a BD FACS Canto II cytometer and the mean fluorescence intensity (MFI) was calculated with FlowJo.
(In general: A flow cytometer gives signals particle by particle.)

Assay [2] addresses T2, mouse MerTK overexpressed on CHO cells (mouse, UniProt Q60805 19-994).
T2 construct: whole, on cells; also called CHO-muMerTK OE
T2 sequence (looked up): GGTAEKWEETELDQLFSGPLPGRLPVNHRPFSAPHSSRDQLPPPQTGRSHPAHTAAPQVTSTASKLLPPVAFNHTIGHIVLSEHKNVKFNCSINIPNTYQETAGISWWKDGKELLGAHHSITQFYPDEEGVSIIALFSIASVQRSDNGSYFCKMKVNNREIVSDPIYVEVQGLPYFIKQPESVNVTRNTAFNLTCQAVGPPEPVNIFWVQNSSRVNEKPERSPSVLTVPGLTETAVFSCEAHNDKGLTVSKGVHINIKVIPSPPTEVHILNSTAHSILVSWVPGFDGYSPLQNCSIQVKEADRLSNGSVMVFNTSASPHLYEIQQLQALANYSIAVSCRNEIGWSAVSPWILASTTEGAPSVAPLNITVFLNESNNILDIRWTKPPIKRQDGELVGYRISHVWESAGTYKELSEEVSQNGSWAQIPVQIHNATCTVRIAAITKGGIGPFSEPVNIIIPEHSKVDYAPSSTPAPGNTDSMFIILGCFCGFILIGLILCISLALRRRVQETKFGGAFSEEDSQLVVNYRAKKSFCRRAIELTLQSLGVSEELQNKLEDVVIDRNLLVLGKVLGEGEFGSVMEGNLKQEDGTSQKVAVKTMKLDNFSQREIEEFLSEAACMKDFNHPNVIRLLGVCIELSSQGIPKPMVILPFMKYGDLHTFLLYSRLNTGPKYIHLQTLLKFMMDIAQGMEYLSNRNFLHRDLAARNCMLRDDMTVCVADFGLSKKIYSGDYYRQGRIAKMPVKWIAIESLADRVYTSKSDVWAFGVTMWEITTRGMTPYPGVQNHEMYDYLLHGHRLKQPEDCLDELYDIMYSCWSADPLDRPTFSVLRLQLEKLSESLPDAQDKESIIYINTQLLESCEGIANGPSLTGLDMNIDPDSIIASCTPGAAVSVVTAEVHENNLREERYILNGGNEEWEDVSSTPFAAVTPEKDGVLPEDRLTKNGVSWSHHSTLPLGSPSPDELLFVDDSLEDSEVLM
In words: FACS, CHO-muMerTK OE cells, 10 ug/ml. Summed up:
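Binding is measured by flow cytometry after a 1 h incubation with 10 μg/ml antibody on ice and a 30 min PE anti-human IgG secondary step with Fc block. Values are mean fluorescence intensities.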

B1: MTK-225 (antibody, human IgG1, V domains shown)
VH: EVQLQQSGPELVKPGASVKIFCKASGYTFTAYNMDWVKQSHGKSLEWIGDINPNNGGTIYNQKFKGKATLTVDKSSSTAYMELRSLTSEDTAVYYCARRRRYGNTYYWYFDVWGTGTTVTVSS
VL: DIQMTQSPASLSVSVGETVTITCRASENIYSSLAWYQQKQGKSPQLLVYAATNLADGVPSRFSGSGSGTQFYLKINGLQSEDFGSYYCQHFWGTSYTFGGGTKLEIK
With B1, the MFI in assay [1] was found to be 40200 MFI; in assay [2], 285 MFI.

B2: MTK-221 (antibody, human IgG1, V domains shown)
VH: QVTLKESGPGMLQSSQTLSLTCSFSGFSLSTSGMGVSWIRQPSGKGLEWLAHIYWDDDKRYNTSLQSRLTISKDTSRNQVFLKITSVDTADTATYFCGRLGAYSAFPYYFDYWGQGTTLTVSS
VL: DIQMTQSPSSLSASLGGKVTITCKASQDIHKHIAWYQHKPGKGPRLLIHYTSTLQPGIPSRFSGSGSGRDYSFSISNLEPEDLATYYCLQYDNLWTFGGGTKLEIK
B2: the figures for the MFI in assay [1] and in assay [2] were 42800 MFI and 374 MFI, respectively.

These data come from patent US20240294650A1 (Alector, published 2024).
